{
  "source": "patent US20040171795A1",
  "about": "“Novel peptides” (priority 2000, published 2004)",
  "key": {"[1]": {"test": "Measurement of turbidity in BSA", "assay_type": "physicochemical", "conditions": "BSA 1%, peptide 50 μM, absorbance at 600 nm", "protocol": "The solutions were evaluated for their absorbance at a wavelength of 600 nm by using a spectrophotometer (DU640, manufactured by Beckman)."}, "[2]": {"test": "Measurement of CD spectrum", "assay_type": "physicochemical", "conditions": "aqueous solution solely containing an inorganic salt, pH 7, 35° C.", "protocol": "The peptide dissolved in 10 mM phosphate buffer (pH=7) containing 50 mM NaCl was evaluated for its CD spectrum in the presence and in the absence of 5 mM SDS by using a circular dichroism spectrophotometer (J-500A, manufactured by JASCO). The cell length was 1 mm. The measurement was conducted at 35° C. for 6 times in total. FIGS. 7 to 9 are respectively views showing mean residue ellipticity in CD spectroscopy of the peptide of SEQ ID NO:1, the peptide of SEQ ID NO:4 and the peptide of SEQ ID NO:16. As evident in FIGS. 7 to 9, the mean residue ellipticity obtained in the presence of SDS was the so called W curve and local minimums were found in the areas at the wavelength of 205 to 210 nm and 220 to 225 nm, and α-helix structure was thereby confirmed."}, "[3]": {"tested_on": "21mer oligonucleotide", "test": "Binding ability to oligonucleotide (electrophoresis)", "conditions": "charge ratio (+/−ratio) of 10", "protocol": "The 21mer oligonucleotide prepared by the procedure described in Example 6 (final concentration, 6.7 μM) and the peptide prepared by the procedure described in Examples 1 to 3 were mixed in 20 mM Tris-HCl buffer (pH=7.2) containing 150 mM NaCl at a charge ratio (+/−ratio) of 0 to 10, and the mixture was allowed to stand at 37° C. for 30 minutes. Next, 7.5 μL of this solution was mixed with an equal amount of Tris-borate buffer (pH=8.2) containing 80% formamide, and electrophoresis was conducted on 25% polyacrylamide gel containing 7M urea. After the electrophoresis, the gel was stained with 5% aqueous solution of Stains all (manufactured by Funakoshi) containing 50% formamide and washed with water to thereby determine the binding of the oligonucleotide and the peptide.\nThe +/−ratio (charge ratio) indicated in FIG. 10 is the ratio of the number (+) of the positively-charged groups in the peptide to the number (−) of negatively-charged groups in the nucleic acid. As evident in FIG. 10, the amount of oligonucleotide that became bound to the peptide increased with the increase in the charge ratio (+/−ratio), and the oligonucleotide was fully bound to the peptide at a charge ratio (+/−ratio) of 10. The peptides of SEQ ID NO:2 to SEQ ID NO:24 were also found to bind at a charge ratio (+/−ratio) of 10."}},
  "data": [
    {"substance": "SEQ ID NO: 1: peptide having the amino acid sequence of SEQ ID NO:1, made by solid phase synthesis (TRYLRIHPRSWVHQIALRLRYLRIHPRSWVHQIALRS; synthetic peptide using an automatic peptide synthesizer)", "values": [
      {"measurement": "OD 600", "setting": "[1]", "value": 0.03},
      {"measurement": "α-helix structure in CD spectrum in the absence of SDS", "setting": "[2]", "value": "do not take α-helix structure"},
      {"measurement": "binding of oligonucleotide to the peptide", "setting": "[3]", "value": "fully bound"}
    ]}
  ]
}
